Patent US20240247080A1, “GLP1/GIP/NPY2 RECEPTOR TRIPLE AGONISTS” (Boehringer Ingelheim International GmbH, priority 2022, published 2024)
Where a chain is given by its changes, count along the chain named. Values belong to the binder of their own block, whether it stands above or below them. Starred links: 1 amine or outer side, 2 acyl side, 3 side chain; linkers in the order of their positions; H or OH if unused. Non-standard residues stand in square brackets, D forms with d. Groups on a side chain read outwards from the residue. No end group written: not given here. *: point of attachment. C20 diacid = O=C(O)CCCCCCCCCCCCCCCCCCC(=O)*; γGlu = O=C(O)[C@H](CCC(=O)[*:2])N[*:1]; εLys = N[C@@H](CCCCN[*:1])C(=O)[*:2]; AEEA = NCCOCCOCC(=O)O; Aib = CC(C)(N)C(=O)O

Legend:
Assay in all cases: cell-based or functional assay
human GLP-1 receptor = human GLP-1 receptor (human, UniProt P43220 24-463)
human GIP receptor = biological target: T1, human GIP receptor (human, UniProt P48546 22-466)
T1 sequence (looked up): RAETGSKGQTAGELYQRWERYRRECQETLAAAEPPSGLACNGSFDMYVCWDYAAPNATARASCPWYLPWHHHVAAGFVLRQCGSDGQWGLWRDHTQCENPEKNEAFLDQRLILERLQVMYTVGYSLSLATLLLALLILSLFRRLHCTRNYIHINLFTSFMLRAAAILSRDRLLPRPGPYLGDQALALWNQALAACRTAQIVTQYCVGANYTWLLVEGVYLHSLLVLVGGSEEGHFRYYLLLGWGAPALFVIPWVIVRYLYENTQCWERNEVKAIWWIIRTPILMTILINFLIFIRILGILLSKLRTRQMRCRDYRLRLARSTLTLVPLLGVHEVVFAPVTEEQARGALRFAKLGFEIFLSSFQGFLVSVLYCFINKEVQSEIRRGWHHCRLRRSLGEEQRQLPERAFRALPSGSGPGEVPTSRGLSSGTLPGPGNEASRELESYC

[1] = biological target: T2, human neuropeptide Y2 (NPY2) receptor (human, UniProt P49146 1-381)
T2 sequence (looked up): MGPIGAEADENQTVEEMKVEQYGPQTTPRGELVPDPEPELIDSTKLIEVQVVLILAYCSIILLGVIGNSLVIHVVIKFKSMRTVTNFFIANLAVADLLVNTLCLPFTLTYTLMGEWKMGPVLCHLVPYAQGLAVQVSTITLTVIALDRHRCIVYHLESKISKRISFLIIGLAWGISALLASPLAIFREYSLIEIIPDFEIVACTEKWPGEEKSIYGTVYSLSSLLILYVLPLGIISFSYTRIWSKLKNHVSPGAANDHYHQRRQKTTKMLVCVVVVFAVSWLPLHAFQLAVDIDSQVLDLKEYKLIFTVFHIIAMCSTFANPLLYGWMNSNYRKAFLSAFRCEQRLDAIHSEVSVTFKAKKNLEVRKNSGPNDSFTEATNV

B1: Compound 74 (peptide)
peptide: YXEGTFTSDYSIXLEKQAQXAFVEWLIKGGPSSGASXRHYYNWLTRQRY
modifications: Aib at 2, 13, 20, 37; DTyr 49; K28 side chain: C20DA-gGlu-gGlu-gGlu-gGlu-gGlu-gGlu-eLys; C-terminal NH2
- EC50, CreLuc assay, 0.5% hP (human GLP-1 receptor): 0.08 nM
- EC50, CreLuc assay, 100% hP (human GLP-1 receptor): 1.13 nM
- EC50, CreLuc assay, 0.5% hP (human GIP receptor): 0.1 nM
- EC50, CreLuc assay, 100% hP (human GIP receptor): 0.62 nM
- EC50, CreLuc assay, 0.5% hP [1]: 53.4 nM
- EC50, CreLuc assay, 100% hP [1]: 110 nM

B2: Compound 69 (peptide)
peptide: B1 peptide with Q17E, A18K, X37L
modifications: Aib at 2, 13, 20; K28 side chain: C20DA-gGlu-gGlu-gGlu-gGlu-gGlu-gGlu-eLys; C-terminal NH2
- EC50, CreLuc assay, 0.5% hP (human GLP-1 receptor): 1.48 nM
- EC50, CreLuc assay, 100% hP (human GLP-1 receptor): 27.8 nM
- EC50, CreLuc assay, 0.5% hP (human GIP receptor): 0.8 nM
- EC50, CreLuc assay, 100% hP (human GIP receptor): 2.95 nM
- EC50, CreLuc assay, 0.5% hP [1]: 8.41 nM
- EC50, CreLuc assay, 100% hP [1]: 26.6 nM

B4: Compound 78 (peptide)
peptide: B1 peptide with E24Q, S33E, G34Y, A35V, X37L
modifications: Aib at 2, 13, 20; K28 side chain: C20DA-gGlu-gGlu-gGlu-gGlu-gGlu-gGlu-eLys; C-terminal NH2
- EC50, CreLuc assay, 0.5% hP (human GLP-1 receptor): 0.64 nM
- EC50, CreLuc assay, 100% hP (human GLP-1 receptor): 12.2 nM
- EC50, CreLuc assay, 0.5% hP (human GIP receptor): 0.53 nM
- EC50, CreLuc assay, 100% hP (human GIP receptor): 6.64 nM
- EC50, CreLuc assay, 0.5% hP [1]: 12.9 nM
- EC50, CreLuc assay, 100% hP [1]: 24.6 nM

B5: Compound 72 (peptide)
peptide: B1 peptide with S36D, X37L, Y41L
modifications: Aib at 2, 13, 20; K28 side chain: C20DA-gGlu-gGlu-gGlu-gGlu-gGlu-gGlu-eLys; C-terminal NH2
- EC50, CreLuc assay, 0.5% hP (human GLP-1 receptor): 0.15 nM
- EC50, CreLuc assay, 100% hP (human GLP-1 receptor): 2.87 nM
- EC50, CreLuc assay, 0.5% hP (human GIP receptor): 0.29 nM
- EC50, CreLuc assay, 100% hP (human GIP receptor): 2.12 nM
- EC50, CreLuc assay, 0.5% hP [1]: 29.1 nM
- EC50, CreLuc assay, 100% hP [1]: 149 nM

B7: Compound 9 (peptide)
peptide: B1 peptide with G34Y, A35V, X37I
modifications: Aib at 2, 13, 20; K28 side chain: C20DA-gGlu-gGlu-gGlu-gGlu-gGlu-gGlu-eLys; C-terminal NH2
- EC50, CreLuc assay, 0.5% hP (human GLP-1 receptor): 0.46 nM
- EC50, CreLuc assay, 100% hP (human GLP-1 receptor): 6.64 nM
- EC50, CreLuc assay, 0.5% hP (human GIP receptor): 0.21 nM
- EC50, CreLuc assay, 100% hP (human GIP receptor): 2.03 nM
- EC50, CreLuc assay, 0.5% hP [1]: 15.2 nM
- EC50, CreLuc assay, 100% hP [1]: 18.9 nM

B8: Compound 64 (peptide)
peptide: Y[Aib]EGTFTSDYSI[Aib]LEKQAQ[Aib]AFVEWLIKGGPESPASLRHYYNWLTRQRY-NH2
modifications: not fully specified (residue 28); also: TFA salt
- EC50, CreLuc assay, 0.5% hP (human GLP-1 receptor): 0.29 nM
- EC50, CreLuc assay, 100% hP (human GLP-1 receptor): 11.2 nM
- EC50, CreLuc assay, 0.5% hP (human GIP receptor): 0.18 nM
- EC50, CreLuc assay, 100% hP (human GIP receptor): 2.37 nM
- EC50, CreLuc assay, 0.5% hP [1]: 17 nM
- EC50, CreLuc assay, 100% hP [1]: 95.3 nM

B9: Compound 2 (peptide)
peptide: B1 peptide with A35I, S36E, X37L, Y40F, Y41L, W43H
modifications: Aib at 2, 13, 20; K28 side chain: C20DA-gGlu-gGlu-gGlu-gGlu-gGlu-gGlu-eLys; C-terminal NH2
- EC50, CreLuc assay, 0.5% hP (human GLP-1 receptor): 0.1 nM
- EC50, CreLuc assay, 100% hP (human GLP-1 receptor): 1.39 nM
- EC50, CreLuc assay, 0.5% hP (human GIP receptor): 0.35 nM
- EC50, CreLuc assay, 100% hP (human GIP receptor): 1.56 nM
- EC50, CreLuc assay, 0.5% hP [1]: > 100 nM
- EC50, CreLuc assay, 100% hP [1]: 564 nM

More lines, now with the values ahead:

- EC50, CreLuc assay, 0.5% hP (human GLP-1 receptor): 0.1 nM
- EC50, CreLuc assay, 100% hP (human GLP-1 receptor): 1.91 nM
- EC50, CreLuc assay, 0.5% hP (human GIP receptor): 0.2 nM
- EC50, CreLuc assay, 100% hP (human GIP receptor): 1.39 nM
- EC50, CreLuc assay, 0.5% hP [1]: 31.5 nM
- EC50, CreLuc assay, 100% hP [1]: 158 nM
B3: Compound 76 (peptide)
peptide: B1 peptide with Y41X
modifications: Aib at 2, 13, 20, 37, 41; K28 side chain: C20DA-gGlu-gGlu-Glu-gGlu-gGlu-gGlu-eLys; C-terminal NH2

- EC50, CreLuc assay, 0.5% hP (human GLP-1 receptor): 0.11 nM
- EC50, CreLuc assay, 100% hP (human GLP-1 receptor): 2.09 nM
- EC50, CreLuc assay, 0.5% hP (human GIP receptor): 0.29 nM
- EC50, CreLuc assay, 100% hP (human GIP receptor): 1.86 nM
- EC50, CreLuc assay, 0.5% hP [1]: 87.6 nM
- EC50, CreLuc assay, 100% hP [1]: 265 nM
B6: Compound 79 (peptide)
peptide: B1 peptide with X37L, W43L, L44X
modifications: Aib at 2, 13, 20, 44; K28 side chain: C20DA-gGlu-gGlu-gGlu-gGlu-gGlu-gGlu-eLys; C-terminal NH2

- EC50, CreLuc assay, 0.5% hP (human GLP-1 receptor): 0.38 nM
- EC50, CreLuc assay, 100% hP (human GLP-1 receptor): 27.4 nM
- EC50, CreLuc assay, 0.5% hP (human GIP receptor): 0.29 nM
- EC50, CreLuc assay, 100% hP (human GIP receptor): 6.18 nM
- EC50, CreLuc assay, 0.5% hP [1]: 13.7 nM
- EC50, CreLuc assay, 100% hP [1]: 78.9 nM
B10: Compound 67 (peptide)
peptide: Y[Aib]EGTFTSDYSI[Aib]LEKQAQ[Aib]AFVQWLIK([εLys-γGlu-γGlu-γGlu-γGlu-γGlu-C20 diacid])GGPEEPASLRHYYNWLTRQRY-NH2
modifications: also: TFA salt

- EC50, CreLuc assay, 0.5% hP (human GLP-1 receptor): 0.24 nM
- EC50, CreLuc assay, 100% hP (human GLP-1 receptor): 16.2 nM
- EC50, CreLuc assay, 0.5% hP (human GIP receptor): 0.32 nM
- EC50, CreLuc assay, 100% hP (human GIP receptor): 2.16 nM
- EC50, CreLuc assay, 0.5% hP [1]: 13.7 nM
- EC50, CreLuc assay, 100% hP [1]: 46.3 nM
B11: Compound 77 (peptide)
peptide: Y[Aib]EGTFTSDYSI[Aib]LEKQAQ[Aib]AFVQWLIK([AEEA-AEEA-γGlu-γGlu-γGlu-γGlu-C20 diacid])GGPEEPASLRHYYNWLTRQRY-NH2
modifications: also: TFA salt
